Columns and labels:
[1] = molecular target: porcine brain tubulin dimers (porcine, UniProt P02550 1-451; Q767L7 1-444); experiment: BLI
[2] = molecular target: microtubules polymerised from porcine brain tubulin (porcine), P02550; experiment: co-sedimentation
Chain of microtubules polymerised from porcine brain tubulin (porcine), P02550 (P02550 whole entry, chain 1 of 2): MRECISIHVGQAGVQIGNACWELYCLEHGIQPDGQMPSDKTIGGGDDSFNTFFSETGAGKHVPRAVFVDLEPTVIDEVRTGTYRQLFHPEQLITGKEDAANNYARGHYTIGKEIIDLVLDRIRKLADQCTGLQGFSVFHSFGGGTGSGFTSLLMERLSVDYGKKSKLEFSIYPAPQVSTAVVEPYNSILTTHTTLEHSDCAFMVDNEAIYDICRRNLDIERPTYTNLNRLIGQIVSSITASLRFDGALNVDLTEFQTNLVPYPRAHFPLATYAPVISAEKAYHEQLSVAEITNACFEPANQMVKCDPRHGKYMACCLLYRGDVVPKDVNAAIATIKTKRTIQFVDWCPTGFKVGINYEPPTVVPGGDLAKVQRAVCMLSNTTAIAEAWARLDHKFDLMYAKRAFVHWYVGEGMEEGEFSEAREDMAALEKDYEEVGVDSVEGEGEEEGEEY
Chain of microtubules polymerised from porcine brain tubulin (porcine), P02550 (P02554 whole entry, chain 2 of 2, further chain): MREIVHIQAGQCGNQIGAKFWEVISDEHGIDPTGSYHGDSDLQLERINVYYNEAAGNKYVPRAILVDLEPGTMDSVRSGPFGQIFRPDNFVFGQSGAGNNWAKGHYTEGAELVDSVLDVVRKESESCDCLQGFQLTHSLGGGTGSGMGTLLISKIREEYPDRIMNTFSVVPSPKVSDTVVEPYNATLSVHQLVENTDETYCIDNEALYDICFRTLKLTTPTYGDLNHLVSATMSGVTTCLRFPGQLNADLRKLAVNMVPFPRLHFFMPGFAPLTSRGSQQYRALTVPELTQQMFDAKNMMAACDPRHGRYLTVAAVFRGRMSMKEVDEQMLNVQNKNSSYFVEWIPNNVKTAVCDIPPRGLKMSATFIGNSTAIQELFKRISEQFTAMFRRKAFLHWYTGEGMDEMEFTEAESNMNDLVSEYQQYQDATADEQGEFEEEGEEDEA

Binder	Kd [1]	Kd [2]
6XHis-688-924 (Abl2-688-924, site I) (domain or fragment, murine, UniProt Q4JIM5 688-924, looked up) GNFSPVASLQNADGFSVAPSQQEPNLVPAKCYGGSFAQRNLCADDDSGGGGGSGTAGGGWSGITGFFTPRLIKKTLGLRAGKPTASDDTSKPFPRSNSTSSMSSGLPEQDRMAMTLPRNCQRSKLQLERTVSTSSQPEENVDRANDMLPKKSEEGAAPARERPKAKLLPRGATALPLRAPDPAITESDSPGVGVAGVAAAPKGKERNGGTRLGVAGVPEDGEQLGWSSPAKAVAVLP	118 ± 39 nM	–
Abl2-eGFP, Q4JIM5 74-1182 (natural protein) EVLHRPFGCDAESQALNEAIRWSSKENLLGATESDPNLFVALYDFVASGDNTLSITKGEKLRVLGYNQNGEWSEVRSKNGQGWVPSNYITPVNSLEKHSWYHGPVSRSAAEYLLSSLINGSFLVRESESSPGQLSISLRYEGRVYHYRINTTTDSKVYVTAESRFSTLAELVHHHSTVADGLVTTLHYPAPKCNKPTVYGVSPIHDKWEMERTDITMKHKLGGGQYGEVYVGVWKKYSLTVAVKTFKEDTMEVEEFLKEAAVMKEIKHPNLVQLLGVCTLEPPFYIVTEYMPYGNLLDYLRECSREEVTAVVLLYMATQISSAMEYLEKKNFIHRDLAARNCLVGENHVVKVADFGLSRLMTGDTYTAHAGAKFPIKWTAPESLAYNTFSIKSDVWAFGVLLWEIATYGMSPYPGIDLSQVYDLLEKGYRMEQPEGCPPKVYELMRACWKWSPADRPSFAETHQAFETMFHDSSISEEVAEELGRTASSSSVVPYLPRLPLLPSKTRTLRKQGENKENLDGGLDAAESLASSSAPAGFIRSTQASSGSPALPRKQRDKSPSSLLEDAKETCFTRDRKGGFFSSFMKKRNAPTPPKRSSSFREMENQPHKKYELTGNFSPVASLQNADGFSVAPSQQEPNLVPAKCYGGSFAQRNLCADDDSGGGGGSGTAGGGWSGITGFFTPRLIKKTLGLRAGKPTASDDTSKPFPRSNSTSSMSSGLPEQDRMAMTLPRNCQRSKLQLERTVSTSSQPEENVDRANDMLPKKSEEGAAPARERPKAKLLPRGATALPLRAPDPAITESDSPGVGVAGVAAAPKGKERNGGTRLGVAGVPEDGEQLGWSSPAKAVAVLPTTHNHKVPVLISPTLKHTPADVQLIGTDSQGNKFKLLSEHQVTSSGDKDRPRRVKPKCAPPPPPVMRLLQHPSTCSDPEEEPTAPPAGQHTPETQEGGKKAAPGPVPSSGKPGRPVMPPPQVPLPTSSISPAKMANGTAGTKVALRKTKQAAEKISADKISKEALLECADLLSSAITEPVPNSQLVDTGHQLLDYCSGYVDSIPQTRNKFAFREAVSKLELSLQELQVSSTAAGVPGTNPVLNNLLSCVQEISDVVQR	–	320 nM
Abl2Δ688-790-eGFP, Q4JIM5 74-1182 (natural protein) EVLHRPFGCDAESQALNEAIRWSSKENLLGATESDPNLFVALYDFVASGDNTLSITKGEKLRVLGYNQNGEWSEVRSKNGQGWVPSNYITPVNSLEKHSWYHGPVSRSAAEYLLSSLINGSFLVRESESSPGQLSISLRYEGRVYHYRINTTTDSKVYVTAESRFSTLAELVHHHSTVADGLVTTLHYPAPKCNKPTVYGVSPIHDKWEMERTDITMKHKLGGGQYGEVYVGVWKKYSLTVAVKTFKEDTMEVEEFLKEAAVMKEIKHPNLVQLLGVCTLEPPFYIVTEYMPYGNLLDYLRECSREEVTAVVLLYMATQISSAMEYLEKKNFIHRDLAARNCLVGENHVVKVADFGLSRLMTGDTYTAHAGAKFPIKWTAPESLAYNTFSIKSDVWAFGVLLWEIATYGMSPYPGIDLSQVYDLLEKGYRMEQPEGCPPKVYELMRACWKWSPADRPSFAETHQAFETMFHDSSISEEVAEELGRTASSSSVVPYLPRLPLLPSKTRTLRKQGENKENLDGGLDAAESLASSSAPAGFIRSTQASSGSPALPRKQRDKSPSSLLEDAKETCFTRDRKGGFFSSFMKKRNAPTPPKRSSSFREMENQPHKKYELTSGLPEQDRMAMTLPRNCQRSKLQLERTVSTSSQPEENVDRANDMLPKKSEEGAAPARERPKAKLLPRGATALPLRAPDPAITESDSPGVGVAGVAAAPKGKERNGGTRLGVAGVPEDGEQLGWSSPAKAVAVLPTTHNHKVPVLISPTLKHTPADVQLIGTDSQGNKFKLLSEHQVTSSGDKDRPRRVKPKCAPPPPPVMRLLQHPSTCSDPEEEPTAPPAGQHTPETQEGGKKAAPGPVPSSGKPGRPVMPPPQVPLPTSSISPAKMANGTAGTKVALRKTKQAAEKISADKISKEALLECADLLSSAITEPVPNSQLVDTGHQLLDYCSGYVDSIPQTRNKFAFREAVSKLELSLQELQVSSTAAGVPGTNPVLNNLLSCVQEISDVVQR	–	400 nM
6XHis-1024-1090 (Abl2-1024-1090, site II) (domain or fragment, murine, UniProt Q4JIM5 1024-1090, looked up) KAAPGPVPSSGKPGRPVMPPPQVPLPTSSISPAKMANGTAGTKVALRKTKQAAEKISADKISKEALL	252 ± 123 nM	–
6XHis-557-C (Abl2-557-1182, C-terminal half) (domain or fragment, murine, UniProt Q4JIM5 557-1182, looked up) GRTASSSSVVPYLPRLPLLPSKTRTLRKQGENKENLDGGLDAAESLASSSAPAGFIRSTQASSGSPALPRKQRDKSPSSLLEDAKETCFTRDRKGGFFSSFMKKRNAPTPPKRSSSFREMENQPHKKYELTGNFSPVASLQNADGFSVAPSQQEPNLVPAKCYGGSFAQRNLCADDDSGGGGGSGTAGGGWSGITGFFTPRLIKKTLGLRAGKPTASDDTSKPFPRSNSTSSMSSGLPEQDRMAMTLPRNCQRSKLQLERTVSTSSQPEENVDRANDMLPKKSEEGAAPARERPKAKLLPRGATALPLRAPDPAITESDSPGVGVAGVAAAPKGKERNGGTRLGVAGVPEDGEQLGWSSPAKAVAVLPTTHNHKVPVLISPTLKHTPADVQLIGTDSQGNKFKLLSEHQVTSSGDKDRPRRVKPKCAPPPPPVMRLLQHPSTCSDPEEEPTAPPAGQHTPETQEGGKKAAPGPVPSSGKPGRPVMPPPQVPLPTSSISPAKMANGTAGTKVALRKTKQAAEKISADKISKEALLECADLLSSAITEPVPNSQLVDTGHQLLDYCSGYVDSIPQTRNKFAFREAVSKLELSLQELQVSSTAAGVPGTNPVLNNLLSCVQEISDVVQR	17 ± 8 nM	–

Reference: paper PMC10877310 (Current biology : CB, 2023)
